Measurements: paper PMC6590058

T1: IRF1 (UniProt P10914 1-325)
T1 sequence: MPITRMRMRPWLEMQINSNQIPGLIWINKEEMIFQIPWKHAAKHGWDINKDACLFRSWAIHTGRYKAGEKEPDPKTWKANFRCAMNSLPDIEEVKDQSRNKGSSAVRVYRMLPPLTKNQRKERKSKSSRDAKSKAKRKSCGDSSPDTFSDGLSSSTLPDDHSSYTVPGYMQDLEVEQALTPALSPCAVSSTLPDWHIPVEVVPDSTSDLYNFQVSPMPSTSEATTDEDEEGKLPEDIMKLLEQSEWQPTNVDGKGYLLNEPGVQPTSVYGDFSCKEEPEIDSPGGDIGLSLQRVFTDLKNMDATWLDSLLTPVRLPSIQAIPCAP


Assays:
[1] = biological target: T1, IRF1; assay: EMSA
[2] = biological target: SMAD4 (UniProt Q13485 1-552); assay: EMSA
SMAD4, sequence (Q13485 whole entry): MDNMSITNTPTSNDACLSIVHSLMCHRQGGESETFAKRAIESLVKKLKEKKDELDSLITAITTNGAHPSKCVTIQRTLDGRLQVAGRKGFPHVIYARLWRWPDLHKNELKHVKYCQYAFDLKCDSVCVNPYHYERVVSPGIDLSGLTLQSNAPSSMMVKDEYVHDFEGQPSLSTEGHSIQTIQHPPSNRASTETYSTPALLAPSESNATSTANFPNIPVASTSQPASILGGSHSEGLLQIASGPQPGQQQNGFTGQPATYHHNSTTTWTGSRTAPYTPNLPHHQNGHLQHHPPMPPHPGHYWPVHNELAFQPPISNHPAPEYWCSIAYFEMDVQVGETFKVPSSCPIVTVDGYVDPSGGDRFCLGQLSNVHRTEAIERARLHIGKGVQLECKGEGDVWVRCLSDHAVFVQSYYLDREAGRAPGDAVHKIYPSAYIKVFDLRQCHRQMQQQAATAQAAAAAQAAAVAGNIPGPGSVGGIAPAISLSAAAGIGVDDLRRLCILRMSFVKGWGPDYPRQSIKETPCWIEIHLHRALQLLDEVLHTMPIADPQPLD

Row | Binder | binding result [1] | binding result [2]
1 | IFI6-ISRE-25 (dsDNA) DNA 1: GAGAGGGGAAAATGAAACTGCAGAG DNA 2: CTCTGCAGTTTCATTTTCCCCTCTC | binds | no binding
2 | HAMP-BRE-25 (dsDNA) DNA 1: TCTCCCGCCTTTTCGGCGCCACCAC DNA 2: GTGGTGGCGCCGAAAAGGCGGGAGA | no binding | binds
